# Reference: article doi:10.1101/2022.06.01.494398
# Biological target: CERTL (long isoform of the ceramide transport protein CERT; GPBP, COL4A3BP) (UniProt Q9Y5P4)
# Experiment: SEC-MALS of self-association
# Conditions: reference: hyperphosphorylated wild-type StrepII-CERTL (CERTLP); sites S132
# Sequence of CERTL (long isoform of the ceramide transport protein CERT; GPBP, COL4A3BP) (Q9Y5P4 whole entry S132A, canonical isoform): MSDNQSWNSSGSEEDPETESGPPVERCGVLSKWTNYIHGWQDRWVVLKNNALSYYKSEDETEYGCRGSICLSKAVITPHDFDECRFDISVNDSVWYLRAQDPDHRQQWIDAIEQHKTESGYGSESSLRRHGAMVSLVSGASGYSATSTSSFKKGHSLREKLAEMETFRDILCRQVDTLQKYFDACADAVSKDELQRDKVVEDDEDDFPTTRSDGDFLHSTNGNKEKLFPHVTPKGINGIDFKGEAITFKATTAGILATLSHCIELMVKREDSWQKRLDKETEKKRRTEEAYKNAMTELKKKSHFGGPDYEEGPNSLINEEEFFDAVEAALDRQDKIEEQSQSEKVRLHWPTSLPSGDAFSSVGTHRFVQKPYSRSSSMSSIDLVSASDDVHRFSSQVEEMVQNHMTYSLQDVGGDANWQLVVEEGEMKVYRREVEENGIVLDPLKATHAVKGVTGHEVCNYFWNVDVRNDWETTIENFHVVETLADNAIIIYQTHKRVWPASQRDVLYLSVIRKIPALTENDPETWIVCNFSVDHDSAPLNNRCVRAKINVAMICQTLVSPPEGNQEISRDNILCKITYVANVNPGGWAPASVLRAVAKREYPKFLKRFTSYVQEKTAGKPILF
substance,measurement,value
"CERTL (long isoform of the ceramide transport protein CERT; GPBP, COL4A3BP) (from UniProt Q9Y5P4) StrepII-CERTL S132A (hypophosphorylated)",other: observed mass (expected trimer 215.7),same; reference 184.3
